From EP4630447A2

What was measured:
Assay in all cases: sVNT, Table 2
[1] = biological target: SARS-CoV-2 spike trimer, BQ.1 (SARS-CoV-2)
[2] = biological target: SARS-CoV-2 spike trimer, XBB (SARS-CoV-2)
[3] = biological target: SARS-CoV-2 spike trimer, BQ.1.1 (SARS-CoV-2)
[4] = biological target: SARS-CoV-2 spike trimer, XBB.1 (SARS-CoV-2)
[5] = biological target: SARS-CoV-2 spike trimer, XBB.1.5 (SARS-CoV-2)

Measured: IC50

Bebtelovimab (antibody)
> 1 µg/mL: [1] | [2] | [3] | [4] | [5]
